Test results reported in the DeepSol protein solubility set.

Assay: soluble on expression in E. coli; label from the status in PepcDB or PDB records
In the case of “MPPAGQDDLDFLKYAMESYVADVNADIGKTTIVFTLREKAGALAETLKLFQAHDVNLSHIESRPSKTHEGCYEVLVEFAEAEDHRKIEGVIEHFQQKAEKKVLVQDWNTKNKQNKDSVPWFPQKINDIDQFANRILSYGAELDADHPGFKDMTYRERRKFFADIAFNFKHGDKIPTITYTDEEIATWRTVYNELTVMYPKNACQEFNYIFPLLQQNCGFGPDRIPQLQDVSDFLKDCTGYTIRPVAGLLSSRDFLAGLAFRVFHSTQYIRHHSAPKYTPEPDICHELLGHVPLFADVEFAQFSQEIGLASLGAPDDVIEKLATLYWFTIEFGICQQDGEKKAYGAGLLSSFGELQYALSDKPEVVDFDPAVCCVTKYPITEYQPKYFLAESFASAKNKLKSWAATINRPFQIRYNAYTQRVEILDKVAALQRLARDIRSDISTLEEALGKVNNLKMK”, the “soluble on expression in E. coli” value is reported as “not soluble”.
With “HNNLLSQLGSSHNSITYDIIFGNKDTKNYYAQFAKKHQTHLYSQISSSNQQELKYVDNDPNLKIKEEAAKSTVQNLTVYS” the “soluble on expression in E. coli” value was “soluble”.
For “MAHHHHHHMGTLKAIIAPSVLASNISKLAEETQRMESLGAEWIHLDVMDMHFVPNLSFGPPVINNLKKYTKSIFFDVHLMVEYPEKYVPLLKTSNQLTFHFEALNEDTERCIQLAKEIRDNNLWCGISIKPKTDVQKLVPILDTNLINTVLVMTVEPGFGGQSFMHDMMGKVSFLRKKYKNLNIQVDGGLNIETTEISASHGANIIVAGTSIFNAEDPKYVIDTMRVSVQKYLNN”, the “soluble on expression in E. coli” value was “soluble”.
For “MATKHDQILKHIEDLPIGDRISVRSIAKSLSVSEGTAYRAIKDAENIGLVSTIQRVGTIRIERKLKKHIEKLTFGEVVRIIEGDVLGGSSGLDKVLNKFVIGAMTETAMTRYITPGSLMIVGNRQGVQKLALENGAAVLITGGFETSEEIAQLADRLGMPVLRTTYDTFTVATMINRALSDQLIKKDILLVSDIYTALEKTNYLLTTQTIADYQALSESTHHSRFPVVNKKLRLVGIVTAKDVIGKSEHLTVDKVMTKDPNVVKKMMSVASVSHQMIWDGLEVMPVVEDDLALVGIVSRQDVMKAMQLVQRQPQIADTISDQISGEVMPVEENGKETTRFRFSVAPQMVNSVGTISFGVLSEIISNVTQRTMLMNQKRNVLIEQVNLHYLRLIQLESELDIRPRILEIGRRSAKLDIEVYLENVIVAKAIVVCQVMERT”, the “soluble on expression in E. coli” value was “not soluble”.
For “MTDVEKPVDNSGTLIDDILSPLKGVNEDLNVLVLGGDKVNNNTDTMMLVNFKPSTSKVSILSIPRDTKVKINGKKAKINSAYPTGGGELAVQTVSELFGIDVKYYVFVDTSSFRKIIDILGGVDYYVPVDMDYDDPLQGLSIHIKKGQHHFDGAMAEKFMRFRQYNNGRVNEYYDGSDLKRIDAQQNFIRELVRQKLNIFYLTKVDDIASTIFSNIDTNLNMSEVLKLTGSVSKVQADSINMLKVPGKSVLDGAWYYVIDSQETDKIINEYFRTRYKLEHHHHHH”, the “soluble on expression in E. coli” value was “soluble”.
In the case of “MLNDLYEEIKLRKTQPREGSYTNYLFDKGLDKILKKVGEEATEVVIAAKNDNQELIAEVSDLAYHLLVLLAEKNIPLVAIQTELQKREGKLSTTRDRKEINDL”, the “soluble on expression in E. coli” value is reported as “not soluble”.
With “MGVEIQSPQEQSSYTVEQLVALNPFNPEILPDLENYVNVTSQTYSLEVNLCLLRLYQFEPERMNTHIVARILVKALMAMPTPDFSLCLFLIPERVQMEEQFKSLIVLSHYLETGRFQQFWDEAAKNRHILEAVPGFEQAIQAYASHLLSLSYQKVPRSVLAEAVNMDGASLDKFIEQQVTNSGWIVEKEGGSIVLPQNEFNHPELKKNTGENVPLEHIARIFPILG” the “soluble on expression in E. coli” value was “not soluble”.
For “MSLSSITNVAATAGVSIATVSRVLSGKRGKDDDIARRVREAAKQLGYSVNYAASALRSDVTKTIGLVIPSATEPFSAQLLDEIEPTIDTESQQLLLGIGATQEAQAERIESLVNRHVDGLIVVPAAGADLAGTLNQYANTLPIVQICGRQTAPRVSVVGIDENAAMEAIVKHLAEQGIASAAYMAGDELSFESAELFATFHTHMRTYGLVTSENWNQFGERTVQRGFDCAMRLFNGPLVQPEAVVCADDAIAFGVMVAFDALGIRVPEDVLVVGYHDSAIARTTMPRLTSVRAPFERIVSECLRLLASGPAGGAAETAAAPGGSVRAPRVMLAPQLIVRDSSVFREGHHHHHH”, the “soluble on expression in E. coli” value was “soluble”.
For “MDEQISKSQKKRDAHYLQDIGIKFIDLSASKLDSLPLPDNLRQAIVDARSIKSHGAKRRQAQLIGKLMRAADFEAILAAYEKILEEESSVTASFHEIELWRDRLLQDGKDALTEFIDAYQPEDVQQLRQLIKKALDDQMKEKNTGAAKALFRYLRSLIK”, the “soluble on expression in E. coli” value was “not soluble”.
